Measurements taken from article PMC9649962, “Early diagnosis of bladder cancer by photoacoustic imaging of tumor-targeted gold nanorods” (Photoacoustics, 2022).

Tests used:
[1] = target: α5β1 integrin on murine bladder cancer MB49-Luc cells (mouse (endogenous in MB49-Luc)) (UniProt P11688)
[2] = target: α5β1 integrin on human bladder cancer 5637 cells (human (endogenous in 5637)) (UniProt P08648)
[3] = target: α5β1 integrin on murine bladder cancer MB49-Luc cells (mouse (endogenous in MB49-Luc)) (UniProt P11688); remark: listed apart in the source
[4] = target: Wild-type human integrin α5β1 (octyl β-D-glucopyranoside preparation) (human) (UniProt P08648); assay: ELISA; α5β1 (4 μg/ml) coated on PVC microtiter plates; Iso4-HRP or ARA-HRP 0–400 nM in 25 mM Tris-HCl pH 7.4, 150 mM sodium chloride, 1 mM magnesium chloride, 1 mM manganese chloride, 1% BSA, 2 h; no detergent; bound peroxidase by OPD, absorbance at 490 nm; effect of urine: Iso4-HRP 300 nM mixed with human urine (11.5–90%)
[5] = test system: MB49-Luc cells; assay: Cell adhesion to GNR-coated plates, MB49-Luc; assay type: cell-based, murine; conditions: excess of free Iso4, plates coated with 250 µg/ml GNRs@Chit-Iso4
Experimental: (§1) The plates were washed and blocked with 2% BSA in DMEM or RPMI-1640 (200 μl/well, 1 h). MB49-Luc and 5637 cells were detached with DPBS-E, washed twice with DPBS, and suspended in DMEM or RPMI-1640 containing 0.1% BSA (binding buffer-3), and added to the coated-plates (1.5 ×10^5 cells/well, 100 μl). After 1–2 h of incubation at 37 °C, 5% CO2, the plates were washed with binding buffer-3. Adherent cells were fixed and stained with 0.5% crystal violet in 20% methanol. After washing with water, the dye was extracted from cells using a 10% acetic acid solution (140 μl/well) and the absorbance at 570 nm was measured using a microplate reader.

[6] = test system: MB49-Luc orthotopic bladder tumor; assay: In vivo PAI of orthotopic MB49-Luc bladder tumor; set-up: species or system mouse; conditions: co-administration of excess free peptide (296 µg) with GNRs@Chit-Iso4 (1.5 nmol Au); two mice per condition
Experimental: All procedures and studies involving mice were approved by the Institutional Animal Care and Use Committee of San Raffaele Scientific Institute and performed according to the prescribed guidelines (IACUC, approval number 942). Female albino C57BL/6 J mice (9 weeks old, weighing about 20 g, Charles River Laboratories, Italy) were anesthetized with ketamine (80 mg/kg) and xylazine (15 mg/kg) and kept in dorsal position. Using a 24-gauge catheter, the bladder of each mouse was emptied and instilled with or without MB49-Luc cells (10^5 cells/100 μl in DPBS). Thirty minutes later the catheter was removed, and mice were allowed to recover and returned to their cage. Tumor growth was monitored by measuring the tumor volume through US imaging (see below) and in vivo bioluminescent quantification after administration of luciferin (15 mg/kg, intra peritoneum) using the non-invasive In Vivo Imaging System (IVIS, PerkinElmer, USA). […]

[7] = test system: 5637 cells; assay: Cell adhesion to GNR-coated plates, 5637; assay type: cell-based, human; conditions: excess of free Iso4, plates coated with 250 µg/ml GNRs@Chit-Iso4
Experimental: as §1

UniProt P11688, sequence (P11688 45-1053, chain 1 of 2): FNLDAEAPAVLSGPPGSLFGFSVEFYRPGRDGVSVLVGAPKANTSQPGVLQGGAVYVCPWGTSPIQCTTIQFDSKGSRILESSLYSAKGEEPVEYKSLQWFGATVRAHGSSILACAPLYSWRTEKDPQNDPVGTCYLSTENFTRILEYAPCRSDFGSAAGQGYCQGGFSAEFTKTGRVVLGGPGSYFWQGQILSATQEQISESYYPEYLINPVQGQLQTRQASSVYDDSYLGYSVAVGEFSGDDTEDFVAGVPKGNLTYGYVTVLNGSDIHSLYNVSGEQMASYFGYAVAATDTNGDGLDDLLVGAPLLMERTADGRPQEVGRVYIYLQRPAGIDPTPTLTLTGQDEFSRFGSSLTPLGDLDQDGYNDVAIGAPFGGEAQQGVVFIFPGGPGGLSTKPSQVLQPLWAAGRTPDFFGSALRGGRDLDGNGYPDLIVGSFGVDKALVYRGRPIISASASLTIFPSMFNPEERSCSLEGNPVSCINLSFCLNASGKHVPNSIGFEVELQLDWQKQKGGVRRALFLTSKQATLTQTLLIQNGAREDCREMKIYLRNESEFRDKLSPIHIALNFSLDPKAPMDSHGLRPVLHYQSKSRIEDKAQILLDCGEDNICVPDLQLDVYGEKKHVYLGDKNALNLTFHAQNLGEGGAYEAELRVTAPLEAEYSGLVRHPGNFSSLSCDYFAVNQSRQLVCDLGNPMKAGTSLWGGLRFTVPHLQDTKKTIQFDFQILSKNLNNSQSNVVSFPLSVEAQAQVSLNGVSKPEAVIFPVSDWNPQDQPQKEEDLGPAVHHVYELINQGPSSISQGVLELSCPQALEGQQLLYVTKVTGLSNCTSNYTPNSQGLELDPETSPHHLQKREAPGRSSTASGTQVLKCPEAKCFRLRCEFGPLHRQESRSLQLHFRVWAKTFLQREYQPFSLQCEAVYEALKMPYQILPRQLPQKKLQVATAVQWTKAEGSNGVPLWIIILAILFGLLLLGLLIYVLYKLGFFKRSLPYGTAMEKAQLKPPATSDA
UniProt P11688, sequence (P09055 21-798, chain 2 of 2, further chain): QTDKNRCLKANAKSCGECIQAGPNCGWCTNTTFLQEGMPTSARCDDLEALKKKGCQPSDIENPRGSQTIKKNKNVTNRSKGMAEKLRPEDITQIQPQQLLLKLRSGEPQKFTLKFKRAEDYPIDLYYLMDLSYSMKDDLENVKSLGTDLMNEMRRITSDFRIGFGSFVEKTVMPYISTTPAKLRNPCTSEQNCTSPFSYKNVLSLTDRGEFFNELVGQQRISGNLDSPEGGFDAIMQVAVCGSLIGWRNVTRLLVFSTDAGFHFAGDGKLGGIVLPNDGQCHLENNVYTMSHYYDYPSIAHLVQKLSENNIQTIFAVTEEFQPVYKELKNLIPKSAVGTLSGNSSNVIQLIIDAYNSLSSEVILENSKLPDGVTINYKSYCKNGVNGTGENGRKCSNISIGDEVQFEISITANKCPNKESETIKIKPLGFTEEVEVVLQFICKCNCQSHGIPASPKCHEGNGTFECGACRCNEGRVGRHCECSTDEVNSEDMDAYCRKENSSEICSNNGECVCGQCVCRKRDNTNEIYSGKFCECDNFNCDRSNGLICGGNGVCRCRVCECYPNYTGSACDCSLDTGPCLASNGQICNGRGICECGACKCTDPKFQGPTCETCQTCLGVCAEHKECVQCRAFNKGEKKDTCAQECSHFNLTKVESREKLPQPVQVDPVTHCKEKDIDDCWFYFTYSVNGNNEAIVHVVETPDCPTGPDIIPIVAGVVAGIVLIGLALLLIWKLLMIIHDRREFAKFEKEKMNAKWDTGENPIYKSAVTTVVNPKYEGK
UniProt P08648, sequence (P08648 42-1049, chain 1 of 2): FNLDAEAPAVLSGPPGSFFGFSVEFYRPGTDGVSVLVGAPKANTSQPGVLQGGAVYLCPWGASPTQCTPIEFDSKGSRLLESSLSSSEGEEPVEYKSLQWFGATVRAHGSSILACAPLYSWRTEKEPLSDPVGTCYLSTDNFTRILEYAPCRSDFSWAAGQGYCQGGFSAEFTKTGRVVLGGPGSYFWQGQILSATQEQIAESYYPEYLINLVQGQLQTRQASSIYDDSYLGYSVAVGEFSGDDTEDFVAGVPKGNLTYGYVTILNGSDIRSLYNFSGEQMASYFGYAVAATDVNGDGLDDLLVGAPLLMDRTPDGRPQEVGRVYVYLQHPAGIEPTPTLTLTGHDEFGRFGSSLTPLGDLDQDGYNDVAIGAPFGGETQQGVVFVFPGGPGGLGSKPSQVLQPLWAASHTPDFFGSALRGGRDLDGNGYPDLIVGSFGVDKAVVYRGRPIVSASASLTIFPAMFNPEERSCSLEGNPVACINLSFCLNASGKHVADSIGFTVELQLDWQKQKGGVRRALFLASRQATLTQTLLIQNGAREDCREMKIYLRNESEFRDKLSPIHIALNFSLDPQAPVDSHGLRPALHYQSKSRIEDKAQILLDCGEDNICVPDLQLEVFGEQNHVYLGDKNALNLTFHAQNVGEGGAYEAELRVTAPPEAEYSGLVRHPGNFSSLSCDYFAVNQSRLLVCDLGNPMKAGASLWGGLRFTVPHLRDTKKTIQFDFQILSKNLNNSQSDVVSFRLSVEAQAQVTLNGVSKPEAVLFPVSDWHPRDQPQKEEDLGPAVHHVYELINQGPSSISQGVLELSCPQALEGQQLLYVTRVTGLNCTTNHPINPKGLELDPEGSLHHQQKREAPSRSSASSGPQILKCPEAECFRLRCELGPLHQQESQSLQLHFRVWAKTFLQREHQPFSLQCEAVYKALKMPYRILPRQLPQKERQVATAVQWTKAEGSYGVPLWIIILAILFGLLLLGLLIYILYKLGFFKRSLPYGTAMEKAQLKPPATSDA
UniProt P08648, sequence (P05556 21-798, chain 2 of 2, further chain): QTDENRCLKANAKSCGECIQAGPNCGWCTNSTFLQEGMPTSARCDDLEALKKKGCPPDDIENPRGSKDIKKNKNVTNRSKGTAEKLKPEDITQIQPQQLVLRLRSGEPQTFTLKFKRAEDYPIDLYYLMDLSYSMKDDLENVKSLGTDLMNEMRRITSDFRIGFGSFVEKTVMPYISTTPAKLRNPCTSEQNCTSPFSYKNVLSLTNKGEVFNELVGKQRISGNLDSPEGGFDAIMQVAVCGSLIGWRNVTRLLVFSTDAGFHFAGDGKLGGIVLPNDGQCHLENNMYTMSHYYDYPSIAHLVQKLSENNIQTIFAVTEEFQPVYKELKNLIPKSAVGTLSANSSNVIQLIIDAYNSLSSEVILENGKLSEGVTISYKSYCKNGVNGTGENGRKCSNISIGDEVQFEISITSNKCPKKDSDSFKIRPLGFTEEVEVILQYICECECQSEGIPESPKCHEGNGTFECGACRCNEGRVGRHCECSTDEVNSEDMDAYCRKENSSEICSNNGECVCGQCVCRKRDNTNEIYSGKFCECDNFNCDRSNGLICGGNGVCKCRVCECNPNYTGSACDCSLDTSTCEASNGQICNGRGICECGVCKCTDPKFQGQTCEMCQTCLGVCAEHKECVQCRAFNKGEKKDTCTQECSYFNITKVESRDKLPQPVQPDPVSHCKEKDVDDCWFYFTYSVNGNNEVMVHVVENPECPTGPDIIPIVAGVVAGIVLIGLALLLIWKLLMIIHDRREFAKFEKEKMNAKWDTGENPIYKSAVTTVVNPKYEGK

GNRs@Chit-Iso4 (chitosan-coated gold nanorods functionalized with Iso4 through a maleimide-PEG12-NHS linker) (peptide)
increase of MB49-Luc cell adhesion to GNRs@Chit-Iso4-coated plates in DMEM containing 25–75% human urine [1]: 20% | EC50 of adhesion of 5637 cells to plates coated with GNRs@Chit-Iso4 [2]: 1.3 µg/mL | EC50 of adhesion of MB49-Luc cells to plates coated with GNRs@Chit-Iso4 [3]: 0.73 µg/mL

Iso4-HRP (head-to-tail cyclized peptide c(CphgisoDGRG), Iso4, conjugated to maleimide-activated horseradish peroxidase)
recovery of binding in 90% human urine [4]: 55%

c(CphgisoDGRG) (head to tail) [Iso4]
inhibition of cell adhesion by free peptide [5]: completely inhibited cell adhesion | effect of free peptide on tumor binding of GNR@Chit-Iso4 [6]: reduced by co-administration of an excess of free Iso4 peptide | inhibition of cell adhesion by free peptide [7]: completely inhibited cell adhesion
